From US20200308288A1 (OSE IMMUNOTHERAPEUTICS, published 2020) come the findings set out here.

Changes are numbered by the printed parent chain.

In test [1] the target is T1, recombinant hCD127 (Sino Biologicals, reference 10975-H08H) (human, UniProt P16871 21-239).
T1 construct: also called rCD127; CD127 protein
T1 chain: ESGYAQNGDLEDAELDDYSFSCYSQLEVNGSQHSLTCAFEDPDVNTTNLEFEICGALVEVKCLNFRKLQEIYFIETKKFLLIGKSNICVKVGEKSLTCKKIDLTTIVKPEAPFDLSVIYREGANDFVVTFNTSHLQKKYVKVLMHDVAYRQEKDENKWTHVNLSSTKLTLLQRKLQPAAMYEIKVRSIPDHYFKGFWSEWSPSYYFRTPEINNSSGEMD
In words: ELISA, recombinant hCD127 immobilised at 1 µg/ml, purified antibody. As to the method: The binding activity of the anti hCD127 antibody was assessed by ELISA (Enzyme-linked immunosorbent assay). For the ELISA assay, recombinant hCD127 (Sino Biologicals, Beijing, China; reference 10975-H08H) was immobilized on plastic at 1μg/ml and purified antibody were added to measure binding.

The target of test [2] is T1, recombinant hCD127 (Sino Biologicals, …). In words: ELISA on immobilised recombinant hCD127 (1 µg/ml) after storage under different conditions. As to the method: Humanized Effi3 antibody (clone VH3VL4) was incubated at 4° C., 37° C., at −80° C. or at room Temperature for 28 days. The binding activity was tested by ELISA assay, recombinant hCD127 (Sino Biologicals, Beijing, China; reference 10975-H08H) was immobilized on plastic at 1 μg/ml and dilutions of supernatant were added to measure binding. […] Increase doses of Mabs were added to measure binding.

B1: MD707-3 (antibody, V domains shown)
VH: AVHLVESGGGLVQPKESLKISCAASGFTFSNAAMYWVRQAPGKGLEWVARIRTKANNYATYYAESVKGRFTISRDDSKSMVYLQMDNVKTDDTAMYYCIVVVLTTTRDYFDYWGQGVMVTVSS
VL: DIVLTQAPLSVSVTPGESASISCRSSQSLLTVKGITSLYWFLQKPGKSPQLLIYRMSNLASGVPDRFRGSGSETDFTLKISKVETEDVGVYYCAQFLEYPHTFGAGTKLELKR
notes: Rat anti-human CD127 antibody; also called MD707-3 chimeric antibody; MD707-3 mAb
Take B1: the EC50 in test [1] amounted to 3.4 ng/mL.

B2: Effi3-VH3VL4 (antibody, human IgG1, kappa, V domains shown)
VH: AVQLVESGGGLVQPGGSLKITCAASGFTFTNAAMYWVRQAPGKGLEWVARIRTKANNYATYYADSVKGRFTISRDDSKSTVYLQMDSVKTEDTATYYCIVVVLTTTRDYFDYWGQGVLVTVSS
VL: DIVLTQSPSSLPVTPGEPASISCRSSQDLLTVKGITSLYWFLQKPGQSPKLLIYRMSNRDSGVPDRFSGSGSGTDFTLKISRVEAEDVGTYYCAQFLEYPHTFGAGTKLELKR
notes: Humanized from rat MD707-3; also called Effi3 H3L4; VHvar3+VLvar4
Take B2: in test [1], the 50% effective concentration (EC50) was 4 ng/mL. In addition, in test [2], the concentration giving a half-maximal response (EC50 (read off the curve)) was roughly 6 ng/mL.

B3: Effi3-VH3VL3 (antibody, human IgG1, kappa, V domains shown)
VH: B2 VH
VL: B2 VL with D28S, G73E
notes: Humanized from rat MD707-3; They are built here from the variable and constant entries so that the signal peptide is left out; also called Effi3 H3L3; VHvar3+VLvar3
For B3, in test [1], the EC50 is 4 ng/mL.
